{
  "source": "patent US8772236B2",
  "about": "“Truncated cystine-knot proteins” (Pepscan Systems B.V., priority 2009, dated 2014)",
  "molecules": {"B1": {"name": "oxid-humVEGF26-104: truncated human VEGF residues 26-104, N-acetylated, C-amidated, cystine-knot folded (SEQ ID NO:27) (peptide)", "chain": "CHPIETLVDIFQEYPDEIEYIFKPSAVPLMRCGGACNDEGLECVPTEESNITMQIMRIKPHQGQHIGEMSFLQHNKCEC", "modifications": "N-acetyl, C-amide, cystine-knot folded; VEGF26-104"}, "B2": {"name": "oxid-ratVEGF26-104: truncated rat VEGF residues 26-104, acetylated and amidated, cystine-knot folded (SEQ ID NO:30) (peptide)", "chain": "B1 chain with H2R, G33A, G40A, E47S, I51V, G63S, N75S, K76R", "modifications": "N-acetyl, C-amide, cystine-knot folded; ratVEGF26-104"}, "B3": {"name": "oxid-humTGFB215-111/Δ49-77-humVEGF62-67: chimeric truncated human TGFB2 residues 15-111 with beta2-loop replaced by humVEGF 62-67 (SEQ ID NO:35) (peptide)", "chain": "CALRPLYIDFKRDLGWKWIHEPKGYNANFCAGACNDEGLECVSQDLEPLTILYYIGKTPKIEQLSNMIVKSCKC", "modifications": "oxidized; humTGFB2-humVEGF"}},
  "key": {"Avastin™": {"system": "Avastin™", "test": "Competition ELISA: inhibition of Avastin-binding to surface-immobilized humVEGF1-165 by peptides"}, "[1]": {"molecular_target": "T1, ratVEGF1-165 homodimer (recombinant full-length ratVEGF) (Rattus norvegicus, UniProt P16612)", "T1 construct": "humanVEGF), and D) ratVEGF1-165 homodimer (recombinant full-length ratVEGF); For", "T1 sequence (P16612 27-165 isoform P16612-2 limits assumed)": "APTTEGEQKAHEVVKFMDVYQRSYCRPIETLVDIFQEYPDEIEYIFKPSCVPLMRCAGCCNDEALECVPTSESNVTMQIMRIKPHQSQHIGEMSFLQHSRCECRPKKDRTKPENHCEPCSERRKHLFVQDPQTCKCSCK", "test": "Binding of rat-antisera in ELISA to ratVEGF1-165 homodimer", "conditions": "coat ratVEGF1-165 homodimer; Avastin", "quoted_text": "Therefore, polystyrene 96-well plates (Greiner, Germany) were treated with 100 μL/well of 0.2% glutaric dialdehyde in phosphate-buffer (0.1 M, pH=5) for four hours at room temperature while shaking, following by washing (3×10 minutes) with phosphate-buffer (0.1 M, pH=8). Then, the wells were coated with 100 μL/well of a 1 μg/mL solution of oxid-humVEGF26-104/humVEGF1-165 in phosphate-buffer (0.1 M, pH=8) for three hours at 37° C., followed by overnight standing at room temperature. After washing with 1% TWEEN®-80 (3×), the plates were incubated with the antibody at various different dilutions in horse serum (4% in PBS/1% TWEEN®-80/3% NaCl), starting with 1/10 dilution in the first well and three-fold dilution steps in subsequent wells. Incubation was performed for one hour at 37° C., followed by washing with 1% TWEEN®-80 (3×). Then, the plates were incubated with 100 μL/well of peroxidase-labeled Goat-anti-rat serum (1/1000 dilution in 4% horse serum, see above) for one hour at 25° C., followed by washing with 1% TWEEN®-80 (4×). […] OD405 nm-values were measured after 45 minutes standing at room temperature in the dark.\n(§3) Titers were calculated by determining the serum dilution for which OD405 nm is equal to 4×OD405 nm that of a buffer solution (see “ELISA-binding studies, example 1B”). […]"}, "humVEGF1-165": {"molecular_target": "T2, humVEGF1-165 (Homo sapiens, UniProt P15692)", "T2 sequence (P15692 27-191 isoform P15692-4 limits assumed)": "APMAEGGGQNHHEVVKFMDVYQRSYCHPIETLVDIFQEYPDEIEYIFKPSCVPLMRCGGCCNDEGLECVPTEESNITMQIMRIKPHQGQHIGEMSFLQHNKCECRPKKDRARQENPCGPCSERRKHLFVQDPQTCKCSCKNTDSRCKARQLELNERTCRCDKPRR", "test": "ELISA titer determination of antisera on surface-immobilized humVEGF1-165 after immunization with oxid-humVEGF26-104", "format": "binding", "conditions": "female Wistar rats and female Balb/C mice", "quoted_text": "Therefore, polystyrene 96-well plates (Greiner, Germany) were treated with 100 μL/well of 0.2% glutaric dialdehyde in phosphate-buffer (0.1 M, pH=5) for four hours at room temperature while shaking, following by washing (3×10 minutes) with phosphate-buffer (0.1 M, pH=8). Then, the wells were coated with 100 μL/well of a 1 μg/mL solution of oxid-humVEGF26-104/humVEGF1-165 in phosphate-buffer (0.1 M, pH=8) for three hours at 37° C., followed by overnight standing at room temperature. After washing with 1% TWEEN®-80 (3×), the plates were incubated with the antibody at various different dilutions in horse serum (4% in PBS/1% TWEEN®-80/3% NaCl), starting with 1/10 dilution in the first well and three-fold dilution steps in subsequent wells. […] OD405 nm-values were measured after 45 minutes standing at room temperature in the dark. […]\nWistar rats: Female Wistar rats were immunized with anti-humVEGF26-104 at day 0 with 400 μL (intramuscular+subcutaneous, 200 μL each) of a 375 μg/mL solution of humVEGF26-104 in PBS/CoVaccine 1:1 (v/v) (PBS=Phosphate-Buffered Saline), followed by a booster (same quantity and concentration) at two and four weeks. […]\nas §3"}, "[2]": {"system": "BaF3 cells (murine pre-B lymphocytes stable expressing human humVEGF-Receptor 2)", "test": "BaF3-cell proliferation in the presence of oxid-humVEGF26-104", "format": "cell-based", "procedure": "FIG. 8. Proliferation data from BaF3/cell assay with humVEGF26-104 at various concentration (0.01-20 ng/mL), either in the absence and presence of humVEGF1-165. Level of proliferation observed at humVEGF1-165=1.2 ng/mL was set by default to 100%, other proliferation levels were expressed as % of default.\nThe cells that are used in the assay are murine pre-B lymphocytes stable expressing human (h) humVEGF-Receptor 2 (Makinen et al., 2001). These recombinant cells survive/proliferate only in the presence of IL-3 (natural cytokine required for the survival of the parental cells) or humVEGF. […]\nTwo days later, cell proliferation was measured by adding WST-1 (Roche #1644807). […]\nThe WST-1 assay is based on the measurement of the mitochondrial succinate dehydrogenase activity. […] A tetrazolium salt (WST-1) is used as substrate since it generates a soluble dark metabolic (formazon) through the action of the enzyme, which can then be quantified by measuring the absorbance (450 nm) in an ELISA reader. The higher the absorbance measured in the assay, the stronger the proliferation. Absorbance is positively correlated with proliferation. […]\nIn order to check whether oxid-humVEGF26-104, the truncated form of humVEGF1-165, is also able to induce BaF3-cell proliferation, we measured cell proliferation in the presence of varying amounts of oxid-humVEGF26-104 (0.01-20 ng/mL). […]"}, "[3]": {"test": "Immunization study in Wistar rats with oxid-ratVEGF26-104 and oxid-humVEGF26-104", "format": "in vivo", "conditions": "250 micrograms, CoVaccine, days 0, 14, 28, 42; bled day 56", "description": "This example describes the results of an immunization study in male Whistar rats with both oxid-hum-VEGF26-104 and oxid-ratVEGF26-104 with an intact cystine-knot fold (oxid-form). […] The use of truncated VEGF as described in this patent can thus be used to bypass immune tolerance to “self proteins,” like, for example, the full-length homodimeric VEGF protein in this particular case.\nA total of four Wistar rats (2×2) were immunized on day 0 with 250 micrograms each of either oxid-ratVEGF26-104 (two rats) or oxid-humVEGF26-104 (two rats) using CoVaccine as adjuvant, followed by booster inoculations at day 14, 28, and 42. The rats were finally bled at day 56, and the sera were analyzed for antibody titers against ratVEGF1-165, humVEGF1-165, oxid-ratVEGF26-104, and oxid-humVEGF26-104."}, "full-length TGF-B2": {"molecular_target": "T3, full-length TGF-B2 (Homo sapiens, UniProt P61812)", "T3 sequence (P61812 303-414 limits assumed)": "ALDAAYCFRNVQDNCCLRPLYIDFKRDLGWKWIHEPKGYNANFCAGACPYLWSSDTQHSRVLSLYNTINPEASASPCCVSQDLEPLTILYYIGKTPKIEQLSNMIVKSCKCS", "test": "ELISA titers of rat antisera to full-length TGF-B2 after immunization with the chimeric peptide", "format": "binding", "description": "(§1) FIG. 21. (Panel A) Antibody titers in ELISA for 9wpv-rat sera (1 and 2+pre-immune sera) that were elicited via immunization with oxid-humTGFB215-111/Δ49-77-humVEGF62-67. Titers were defined as the −10 log [conc] at which the OD in ELISA is equal to 4× the background signal. (Panel B) Antibody binding in ELISA of 9wpv-rat sera to surface-immobilized 1) humTGFB2trunc-1 (with VEGF b2-loop), 2) humTGFB2trunc-2 (with sequence PGGSPA replacing native humTGF-B2 b2-loop), and 3) humVEGFtrunc.\n(§2) Each animal received four inoculations (0, 2, 4, and 7.5 wks) with 2×450+2×130 microgram of oxid-humTGFB215-111/Δ49-77-humVEGF62-67."}, "[4]": {"system": "humTGFB2trunc-1, humTGFB2trunc-2, humVEGFtrunc", "test": "ELISA binding of 9wpv-rat sera to humTGFB2trunc-1, humTGFB2trunc-2 and humVEGFtrunc", "design": "species or system human", "description": "as §1, §2"}},
  "note": "Substitutions are numbered along the chain they refer to. “And” between values parts separate entries of the source, which are not always exact repeats. Identical values can stand only once.",
  "data": [
    {"molecule": "(cyclic) peptide-mimic derived from the beta3-loop of humVEGF: backbone-cyclized peptide covering only the β5-turn-β6 loop of humVEGF (humVEGF74-98) (SNITMQIMRIKPHQGQHIGEMSFLQ; cyclised or stapled) [reference compound]", "values": [
      {"measurement": "fold less active in binding to Avastin™", "setting": "Avastin™", "result": "> 10,000 fold"}
    ]},
    {"molecule": "Avastin: humanized anti-humVEGF monoclonal antibody (Genentech)", "values": [
      {"measurement": "titer endblood (mAb, as concentration)", "setting": "[1]", "result": "<1000", "unit": "ng/mL"}
    ]},
    {"molecule": "B1", "values": [
      {"measurement": "antibody generation via immunization (not conjugated to a carrier protein)", "setting": "humVEGF1-165", "result": "high levels of antibodies were successfully generated"},
      {"measurement": "effect on the proliferating ability of humVEGF1-165", "setting": "[2]; 0.01-20 ng/mL in the presence of humVEGF1-165=1.2 ng/mL", "result": "nor any affect on the proliferating ability of humVEGF1-165"},
      {"measurement": "activity in BaF3-cell proliferation", "setting": "[2]; 0.01-20 ng/mL, absence of humVEGF1-165", "result": "no activity"},
      {"measurement": "difference in affinity (as compared to humVEGF1-165) to Avastin™", "setting": "Avastin™; 10 ng/mL Avastin", "result": "less than five"}
    ]},
    {"molecule": "B2", "values": [
      {"measurement": "immunogenicity in rats compared to oxid-humVEGF26-104", "setting": "[3]", "result": "equally immunogenic and potent as compared to oxid-humVEGF26-104"}
    ]},
    {"molecule": "B3", "values": [
      {"measurement": "titer in ELISA to full-length TGF-B2, pre-immune sera", "setting": "full-length TGF-B2; pre-immune sera of the two rats", "result": "≤ 2.1"},
      {"measurement": "cross-reactivity of elicited antibodies with native humTGF-B2", "setting": "full-length TGF-B2; rat antisera", "result": "fully cross-reactive with the native protein humTGF-B2"},
      {"measurement": "titer in ELISA to full-length TGF-B2, nine weeks post vaccination antisera", "setting": "full-length TGF-B2; two rats, inoculations at 0, 2, 4, 7.5 wks, titer = -10log[conc] at which OD = 4x background", "result": "3.8 and 4.1"},
      {"measurement": "specificity of antibodies in the sera (TGFB2-part versus VEGF-part)", "setting": "[4]", "result": "majority of antibodies in the sera were directed towards the TGFB2-part of the peptide"}
    ]}
  ]
}
